Biological target: G-actin (UniProt P68135)
Test: size exclusion chromatography

other: actins (apparent stoichiometry of G-actin binding): 2.2
Substance: MRTF-A(67–199) L74A; L78A
